According to publication PMC7082571, “Two New Unspecific Peroxygenases from Heterologous Expression of Fungal Genes in Escherichia coli” (Applied and Environmental Microbiology, 2020):
Positions count from the first letter of the chain named. Blank lines part the entries; values can stand above or below the molecule they belong to.

Legend:
[1] = biological target: T1, rCviUPO (C. virescens UPO) (Achaetomiella virescens, UniProt Z9FBJ6W4Y2, F87L, form not given); assay: veratraldehyde formation at […] nm; type: biochemical; conditions: 1 mM H2O2, 0.1 M acetate, optimal pH (Fig. S10), 25°C
T1 construct: codon-optimised gene in pET23a, untagged, soluble in E. coli C41; 29,616 Da calculated, 52 kDa by SEC (most probably dimer); heme-thiolate
T1 sequence (Z9FBJ6W4Y2 1-226 F87L): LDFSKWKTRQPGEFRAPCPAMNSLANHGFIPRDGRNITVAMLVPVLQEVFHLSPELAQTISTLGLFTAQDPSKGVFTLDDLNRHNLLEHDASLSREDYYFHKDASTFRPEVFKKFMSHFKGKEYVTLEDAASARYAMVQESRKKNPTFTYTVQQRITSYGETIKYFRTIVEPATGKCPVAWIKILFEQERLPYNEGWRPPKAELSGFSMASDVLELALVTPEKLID

[2] = biological target: T2, rCviUPO (C. virescens UPO) (Achaetomiella virescens, UniProt Z9FBJ6W4Y2); assay: veratraldehyde formation at […] nm; type: biochemical; conditions: 1 mM H2O2, 0.1 M acetate, optimal pH (Fig. S6), 25°C
T2 construct: codon-optimised gene in pET23a, untagged, soluble in E. coli C41; 29,616 Da calculated, 52 kDa by SEC (most probably dimer); heme-thiolate
T2 sequence (Z9FBJ6W4Y2 1-226): T1 sequence (Z9FBJ6W4Y2 1-226 F87L) with L87F

[3] = biological target: T3, rDcaUPO (D. caldariorum UPO) (Daldinia caldariorum, UniProt A0AAN0NP18); assay: veratraldehyde formation at […] nm, substrate inhibition model; type: biochemical; conditions: 1 mM H2O2, 0.1 M acetate, optimal pH (Fig. S6), 25°C
T3 construct: codon-optimised gene in pET28, poly-His tag (thrombin-cleavable, no effect on activity), soluble in E. coli C41; 29,609 Da calculated, 55 kDa by SEC (most probably dimer)

[4] = biological target: T4, rCviUPO (C. virescens UPO) (Achaetomiella virescens, UniProt Z9FBJ6W4Y2, T157F, form not given); assay: veratraldehyde formation at […] nm; type: biochemical; conditions: 1 mM H2O2, 0.1 M acetate, optimal pH (Fig. S10), 25°C
T4 construct: codon-optimised gene in pET23a, untagged, soluble in E. coli C41; 29,616 Da calculated, 52 kDa by SEC (most probably dimer); heme-thiolate
T4 sequence (Z9FBJ6W4Y2 1-226 T157F): T1 sequence (Z9FBJ6W4Y2 1-226 F87L) with L87F, T157F

[5] = biological target: recombinant Daldinia caldariorum unspecific peroxygenase (Daldinia caldariorum); assay: SEC; Sepharose 12 10/300 column, 10 mM Tris (pH 7.4) with 0.15 M NaCl, calibrated with ferritin, aldolase, bovine serum albumin, ovalbumin, carbonic anhydrase and aprotinin; native mass compared with SDS-PAGE under reducing conditions
[6] = biological target: T4, rCviUPO (C. virescens UPO); assay: benzaldehyde formation at […] nm; type: biochemical; conditions: 1 mM H2O2, 0.1 M Tris, optimal pH (Fig. S10), 25°C
[7] = biological target: T1, rCviUPO (C. virescens UPO); assay: benzaldehyde formation at […] nm; type: biochemical; conditions: 1 mM H2O2, 0.1 M Tris, optimal pH (Fig. S10), 25°C
[8] = biological target: T3, rDcaUPO (D. caldariorum UPO); assay: benzaldehyde formation at […] nm, substrate inhibition model; type: biochemical; conditions: 1 mM H2O2, 0.1 M Tris, optimal pH (Fig. S6), 25°C
[9] = biological target: T2, rCviUPO (C. virescens UPO); assay: benzaldehyde formation at […] nm, Hill fit; type: biochemical; conditions: 1 mM H2O2, 0.1 M Tris, optimal pH (Fig. S6), 25°C; sigmoidal, nH 1.6 ± 0.2
purified protein [10] = substrate: CCn1c(=NN=c2sc3cc(S(=O)(=O)O)ccc3n2CC)sc2cc(S(=O)(=O)O)ccc21; assay: purified protein; type: biochemical, Daldinia caldariorum; conditions: 1 mM H2O2, 0.1 M acetate, optimal pH (Fig. S6), 25°C
purified protein [11] = substrate: COc1ccc(CO)cc1OC; assay: purified protein; type: biochemical, Daldinia caldariorum; conditions: 1 mM H2O2, 0.1 M acetate, optimal pH (Fig. S6), 25°C
purified protein [12] = substrate: OCc1ccccc1; assay: purified protein; type: biochemical, Daldinia caldariorum; conditions: 1 mM H2O2, 0.1 M Tris, optimal pH (Fig. S6), 25°C
purified protein [13] = substrate: c1ccc2ccccc2c1; assay: purified protein; type: biochemical, Daldinia caldariorum; conditions: 1 mM H2O2, 0.1 M tartrate with 5% ethanol, optimal pH (Fig. S6), 25°C, Methods say Hill fit, Results say Michaelis-Menten
[14] = biological target: the molecule itself; assay: SEC; Sepharose 12 10/300 column, 10 mM Tris (pH 7.4) with 0.15 M NaCl, calibrated with ferritin, aldolase, bovine serum albumin, ovalbumin, carbonic anhydrase and aprotinin; native mass compared with SDS-PAGE under reducing conditions

Molecule: COc1ccc(CO)cc1OC [veratryl alcohol]
Km [1]: 1.15 mM
Km [2]: 2.94 mM
Ki (μM) [3]: 45,400 ± 7,000 μM
Km [4]: 3.97 mM

stoichiometry N [5]: 2
Molecule: recombinant Daldinia caldariorum unspecific peroxygenase (enzyme)

Molecule: OCc1ccccc1 [benzyl alcohol]
Km [6]: 1.87 mM
Km [7]: 623 ± 111 µM
Ki (μM) [8]: 9,280 ± 2,270 μM
Km [9]: 7.1 mM

B1: rDcaUPO (D. caldariorum UPO) (Daldinia caldariorum) (protein)
chain: MAPWKAPGPDDVRGPCPMLNTLANHGFLPHDGKNIDVNTTVNALSSALNLDDELSRDLHTFAVTTNPQPNATWFSLNHLSRHNVLEHDASLSRQDAYFGPPDVFNAAVFNETKAYWTGDIINFQMAANALTARLMTSNLTNPEFSMSQLGRGFGLGETVCYVTILGSKETRTVPKAFVEYLFENERLPYELGFKKMKSALTEDELTTMMGEIYSLQHLPESFTKPFAKRSEAPFEKRAEKRCPFH
notes: codon-optimised gene in pET28, poly-His tag (thrombin-cleavable, no effect on activity), soluble in E. coli C41; 29,609 Da calculated, 55 kDa by SEC (most probably dimer)
Km (purified protein [10]): 59 ± 6 µM
kcat (purified protein [10]): 6.73 ± 0.14 s⁻¹
kcat/Km (purified protein [10]): 114000 ± 10500 M⁻¹ s⁻¹
Km (purified protein [11]): 160 ± 22 µM
kcat (purified protein [11]): 2.39 ± 0.09 s⁻¹
kcat/Km (purified protein [11]): 14800 ± 2100 M⁻¹ s⁻¹
Km (purified protein [12]): 179 ± 36 µM
kcat (purified protein [12]): 16.1 ± 1.19 s⁻¹
kcat/Km (purified protein [12]): 90000 ± 19000 M⁻¹ s⁻¹
Km (purified protein [13]): 332 ± 81 µM
kcat (purified protein [13]): 22.1 ± 1.92 s⁻¹
kcat/Km (purified protein [13]): 66800 ± 17300 M⁻¹ s⁻¹

B2: recombinant Collariella virescens unspecific peroxygenase (enzyme)
chain: ALDFSKWKTRQPGEFRAPCPAMNSLANHGFIPRDGRNITVAMLVPVLQEVFHLSPELAQTISTLGLFTAQDPSKGVFTLDDLNRHNLFEHDASLSREDYYFHKDASTFRPEVFKKFMSHFKGKEYVTLEDAASARYAMVQESRKKNPTFTYTVQQRITSYGETIKYFRTIVEPATGKCPVAWIKILFEQERLPYNEGWRPPKAELSGFSMASDVLELALVTPEKLID
stoichiometry N [14]: 2
